# Results: US20130195901A1
# Target: HLA-A*0201 class I monomer of the iTopia Epitope Discovery System
# Test: iTopia binding ED50
# Details: modification not given
binder,measurement,value
"YLSEKIFYV [PSMA 288-297 (L289(Nle), I297(Nle))]",EC50,524 nM
